In general, Kd refers to a measure of binding affinity in units of concentration. Read a low Kd as a tighter complex.

From US20230091175A1 (SYSMEX, published 2023) come the findings set out here.

Assay [1] concerns the target T1, human IL6 protein, His and GST tags (active) (GTX00094-pro: GeneTex, Inc.) (human, UniProt P05231 30-212, limits assumed).
T1 construct: Bought reagent; not shown: His and GST tags
The assay can be described thus: SPR (Biacore 8K), antigen immobilized on CM4 chip, antibody as analyte. On the procedure: (§1) (4.1) For anti-IL-6 antibody, anti-IL-8 antibody, and anti-IL-12 antibody Affinity of the original antibodies and variants was measured using Biacore (registered trademark) 8K (Cytiva). As antigens, human IL6 protein, His and GST tags (active) (GTX00094-pro: GeneTex, Inc.), interleukin 8 (CXCL8) (100-175: Shenandoah Biotechnology, Inc.), and human IL 12 protein (Recombinant His, C-terminus) (aa23-328) (LS-G134297-50: LSBio, Inc.) were used. The antigen was immobilized to a sensor chip for Biacore (registered trademark) Series S Sensor Chip CM4 (GE Healthcare). Each antibody solution obtained in the above (3.2) was diluted to prepare an antibody solution for measurement. The concentration of each antibody in the antibody solution for measurement was as follows. In the solutions of the anti-IL-6 antibody (58-1) and its R3, R4 and R5 variants, the concentration was 100 nM, 50 nM, 25 nM, 12.5 nM and 6.25 nM. In the solution of the anti-IL-6 antibody (44-15), the concentration was 100 nM, 50 nM, 25 nM, 12.5 nM and 6.25 nM, and in the solutions of its R3, R4 and R5 variants, the concentration was 50 nM, 25 nM, 12.5 nM, 6.25 nM and 3.13 nM. In the solutions of the anti-IL-8 antibody (166-1) and its R3, R4 and R5 variants, the concentration was 100 nM, 50 nM, 25 nM, 12.5 nM and 6.25 nM. In the anti-IL-8 antibody (146-1) solution, the concentration was 100 nM, 50 nM, 25 nM, 12.5 nM and 6.25 nM, in the solution of its R3 variant, the concentration was 50 nM, 25 nM, 12.5 nM, 6.25 nM and 3.13 nM, and in the solutions of its R4 and R5 variants, the concentration was 25 nM, 12.5 nM, 6.25 nM, 3.13 nM and 1.56 nM. In the anti-IL-12 antibody solution, the concentration was 50 nM, 25 nM, 12.5 nM, 6.25 nM and 3.13 nM, in the solution of its R3 variant, the concentration was 25 nM, 12.5 nM, 6.25 nM, 3.13 nM and 1.56 nM, and in the solution of its R4 variant, the concentration was 12.5 nM, 6.25 nM, 3.13 nM, 1.56 nM and 0.78 nM.
(§2) The antibody solutions for measurement at each concentration were delivered to Biacore (registered trademark) 8K (Cytiva) (association time of 120 seconds and dissociation time of 1200 seconds). Measurement data was analyzed using Biacore (registered trademark) Evaluation software, and the data on the affinity of each antibody for an antigen was obtained.
(In general: Surface plasmon resonance follows binding to a sensor surface in real time, without labels.)

Assay [2] addresses T1, human IL6 protein, His and GST tags …. The assay can be described thus: SPR (Biacore 8K); affinity ratio with the original antibody as 1.0. On the procedure:
as §1, §2

Assay [3] deals with T2, interleukin 8 (CXCL8) (100-175: Shenandoah Biotechnology, Inc.) (UniProt P10145 28-99).
T2 construct: the antibodies tested are mouse anti-human IL-8 antibodies; also called IL-8
T2 sequence (looked up): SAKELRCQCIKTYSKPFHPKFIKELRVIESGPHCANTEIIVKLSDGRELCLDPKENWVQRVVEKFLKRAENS
The assay can be described thus: SPR (Biacore 8K), antigen immobilized on CM4 chip, antibody as analyte. On the procedure: as §1, §2

The target in assay [4] is T2, interleukin 8 (CXCL8) (100-175: …). As to the kind of experiment: SPR (Biacore 8K); affinity ratio with the original antibody as 1.0. On the procedure:
as §1, §2

B1: mouse anti-human IL-6 antibody (clone 58-1), original (unmodified) (Fab, V domains shown, not shown: a dimerising Fc or GST)
VH: EVQLQQSGPELVKPGASVKMSCKASGYTFTSYVMHWVKQKPGQGLEWIGYINPYNDGTKYNEKFKGKATLTSDKSSSTAYMELSSLTSEDSAVYYCAREGYGNLERDCWGQGTSVTVSS
VL: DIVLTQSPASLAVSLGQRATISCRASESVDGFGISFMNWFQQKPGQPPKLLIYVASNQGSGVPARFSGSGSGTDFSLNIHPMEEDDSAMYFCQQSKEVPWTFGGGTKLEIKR
notes: The heavy entry is VH-CH1 with part of the hinge; the light entry holds only the variable domain; Purified on Ni-NTA, so a His tag is implied but not described; also called Anti-IL-6 antibody (clone 58-1)
As to B1, in assay [1], the Kd turned out to be 0.198 nM. Besides, in assay [2], the KD ratio came to 1.

B2: R5 variant of anti-IL-6 antibody (clone 58-1) (Fab, V domains shown, not shown: a dimerising Fc or GST)
VH: EVQLQQSGPELVKPGASVKMSCKASGYTFTSYVMHWVKQKPGQGLEWIGYINPYNDGTKYNEKFKGKATLTSDKSSSTAYMELSSLTSEDSAVYYCAREGYGNLERDCWGQGTSVTVSS
VL: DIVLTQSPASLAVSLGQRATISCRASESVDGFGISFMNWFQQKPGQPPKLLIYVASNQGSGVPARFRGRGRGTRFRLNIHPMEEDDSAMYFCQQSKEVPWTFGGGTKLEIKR
notes: Light chain positions 63, 65, 67, 70, 72 (Chothia) changed to Arg; Fab
In turn, B2 yielded a Kd in assay [1] of 0.0279 nM. In addition, in assay [2], the KD ratio was determined as 7.1.

B3: R3 variant of anti-IL-6 antibody (clone 58-1) (Fab, V domains shown, not shown: a dimerising Fc or GST)
VH: EVQLQQSGPELVKPGASVKMSCKASGYTFTSYVMHWVKQKPGQGLEWIGYINPYNDGTKYNEKFKGKATLTSDKSSSTAYMELSSLTSEDSAVYYCAREGYGNLERDCWGQGTSVTVSS
VL: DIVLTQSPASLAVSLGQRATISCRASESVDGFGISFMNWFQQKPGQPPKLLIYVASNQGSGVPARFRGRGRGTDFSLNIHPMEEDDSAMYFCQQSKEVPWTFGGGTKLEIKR
notes: Light chain positions 63, 65, 67 (Chothia) changed to Arg; Fab; a His tag is implied by Ni-NTA purification but not described
On to B3, for which the Kd in assay [1] was 0.0812 nM. In addition, the KD ratio in assay [2] turned out to be 2.4.

B4: R4 variant of anti-IL-6 antibody (clone 58-1) (Fab, V domains shown, not shown: a dimerising Fc or GST)
VH: EVQLQQSGPELVKPGASVKMSCKASGYTFTSYVMHWVKQKPGQGLEWIGYINPYNDGTKYNEKFKGKATLTSDKSSSTAYMELSSLTSEDSAVYYCAREGYGNLERDCWGQGTSVTVSS
VL: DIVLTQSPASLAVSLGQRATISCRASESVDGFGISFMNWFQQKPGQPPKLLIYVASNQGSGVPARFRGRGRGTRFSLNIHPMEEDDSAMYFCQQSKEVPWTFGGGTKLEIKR
notes: Light chain positions 63, 65, 67, 70 (Chothia) changed to Arg; Fab
Consider B4, for which the Kd in assay [1] was determined as 0.0472 nM. In assay [2], the KD ratio came to 4.2.

B5: mouse anti-human IL-8 antibody (clone 166-1), original (unmodified) (Fab, V domains shown, not shown: a dimerising Fc or GST)
VH: EVKLVESGGGLVKPGGSLKLSCAASGFTFNNYAMSWVRQTPEKRLEWVASISSGGNTYYPDSVKGRFTLSRDNARNILYLQMSRLRSEDTAMYYCARDKLRLPNWYFDVWGAGTTVTVSS
VL: DIVLTQSPPSLAVSLGQRATISCKASQSVDYDGDSYMNWYQQKPGQPPKVLIYGASNLESGIPARFSGSGSGTDFTLNIYPVEEEDAATYYCQQSNEDPPTFGGGTKLEIKR
notes: Fab; the light entry holds only the variable domain; a His tag is implied by Ni-NTA purification but not described; also called Anti-IL-8 antibody (clone 166-1)
In assay [3], B5 yielded a dissociation constant (Kd) of 1.64 nM. In addition, the KD ratio in assay [4] came to 1.

B6: R4 variant of anti-IL-8 antibody (clone 166-1) (Fab, V domains shown, not shown: a dimerising Fc or GST)
VH: EVKLVESGGGLVKPGGSLKLSCAASGFTFNNYAMSWVRQTPEKRLEWVASISSGGNTYYPDSVKGRFTLSRDNARNILYLQMSRLRSEDTAMYYCARDKLRLPNWYFDVWGAGTTVTVSS
VL: DIVLTQSPPSLAVSLGQRATISCKASQSVDYDGDSYMNWYQQKPGQPPKVLIYGASNLESGIPARFRGRGRGTRFTLNIYPVEEEDAATYYCQQSNEDPPTFGGGTKLEIKR
notes: as for B4
For B6, the Kd in assay [3] stood at 0.595 nM. For the same molecule, the KD ratio in assay [4] is 2.8.

B7: R5 variant of anti-IL-8 antibody (clone 166-1) (Fab, V domains shown, not shown: a dimerising Fc or GST)
VH: EVKLVESGGGLVKPGGSLKLSCAASGFTFNNYAMSWVRQTPEKRLEWVASISSGGNTYYPDSVKGRFTLSRDNARNILYLQMSRLRSEDTAMYYCARDKLRLPNWYFDVWGAGTTVTVSS
VL: DIVLTQSPPSLAVSLGQRATISCKASQSVDYDGDSYMNWYQQKPGQPPKVLIYGASNLESGIPARFRGRGRGTRFRLNIYPVEEEDAATYYCQQSNEDPPTFGGGTKLEIKR
notes: as for B2
As for B7, the Kd in assay [3] is 0.389 nM. Further, the KD ratio in assay [4] stood at 4.2.

B8: R3 variant of anti-IL-8 antibody (clone 166-1) (Fab, V domains shown, not shown: a dimerising Fc or GST)
VH: EVKLVESGGGLVKPGGSLKLSCAASGFTFNNYAMSWVRQTPEKRLEWVASISSGGNTYYPDSVKGRFTLSRDNARNILYLQMSRLRSEDTAMYYCARDKLRLPNWYFDVWGAGTTVTVSS
VL: DIVLTQSPPSLAVSLGQRATISCKASQSVDYDGDSYMNWYQQKPGQPPKVLIYGASNLESGIPARFRGRGRGTDFTLNIYPVEEEDAATYYCQQSNEDPPTFGGGTKLEIKR
notes: Light chain positions 63, 65, 67 (Chothia) changed to Arg; Fab
In assay [3], B8 displayed a Kd of 1.17 nM. Also, in assay [4], the KD ratio was 1.4.
